{
  "source": "the RNAGym collection of RNA variant scans (doi:10.1073/pnas.2313332121)",
  "parents": {"B1": {"name": "TPR t1 (parent)", "chain": "GACCAAUCUGCCCUCAGAGCUCGAGAACAUCUUCGGAUGCAGAGGAGGCAGGCUUCGGUGGCGCGAUAGCGCCAACGUCCUCAACCUCCAAUGCAUCCCACCACAUGAUGAUGCCUGAAGAGCCUUGGUUUUUUG"}},
  "data": [
    {"variants_of": "B1", "experiment": "polymerase ribozyme fitness, log enrichment relative to wild type (log ratio); higher = more active; in vitro selection for triplet polymerase activity", "procedure,_shortened": "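A single round of triplicate in vitro selection, including frozen incubation at −7 °C, was applied to PCR-built, transcribed mutant libraries of each subunit of a heterodimeric triplet polymerase ribozyme. Illumina sequencing of input and output libraries retained genotypes with ≥10 input reads and ≥1 read per output. Fitness is the base-2 logarithm of genotype enrichment divided by wild-type enrichment, from inverse-variance-weighted replicate averages.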", "values": [
      {"variant": "GACCAAUCUGCCCUCAGAGCUCGAGAACAUCUUCGGAUGCAGAGGAGGCAGGCUUCGGUGGCGCGAUAGCGCCAACGUCCUCAACCUCCAAUGCAUCCCAACACAUGAUGGUGCCUGAAGAGCCUUGGUUUUUUG", "polymerase ribozyme fitness (log ratio)": 0.362},
      {"variant": "GACCAAUCUGCCCUCAGAGCUCGAGAACAUCUUCGGAUGCAGAGGAGGCAGGCUUCGGUGGCGCGAUAGCGCCAACGUCCUCAACCUCCAAUGCAUCCCAUCACAUGAUGAUGGCUGAAGAGCCUUGGUUUUUUG", "polymerase ribozyme fitness (log ratio)": -3.89},
      {"variant": "GACCAAUCUGCCCUCAGAGCUCGAGAACAUCUUCGGAUGCAGAGGAGGCAGGCUUCGGUGGCGCGAUAGCGCCAACGUCCUCAACCUCCAAUGCAUCCCAGCACAUGAUGACGCCUGAAGAGCCUUGGUUUUUUG", "polymerase ribozyme fitness (log ratio)": -0.331},
      {"variant": "GACCAAUCUGCCCUCAGAGCUCGAGAACAUCUUCGGAUGCAGAGGAGGCAGGCUUCGGUGGCGCGAUAGCGCCAACGUCCUCAACCUCCAAUGCAUCCCAGCACAUGAUGAUGCCUGAAGAGCCUUGGUUUUUUC", "polymerase ribozyme fitness (log ratio)": -1.41},
      {"variant": "GACCAAUCUGCCCUCAGAGCUCGAGAACAUCUUCGGAUGCAGAGGAGGCAGGCUUCGGUGGCGCGAUAGCGCCAACGUCCUCAACCUCCAAUGCAUCCCUCCACAUGAUGAUGCCUGAAGAGCCUGGGUUUUUUU", "polymerase ribozyme fitness (log ratio)": -2.69},
      {"variant": "GACCAAUCUGCCCUCAGAGCUCGAGAACAUCUUCGGAUGCAGAGGAGGCAGGCUUCGGUGGCGCGAUAGCGCCAACGUCCUCAACCUCCAAUGCAUCCCAUCACAUGAUGAUGCCUGAAGGGCCUUGGUUUUUUG", "polymerase ribozyme fitness (log ratio)": 1.57},
      {"variant": "GACCAAUCUGCCCUCAGAGCUCGAGAACAUCUUCGGAUGCAGAGGAGGCAGGCUUCGGUGGCGCGAUAGCGCCAACGUCCUCAACCUCCAAUGCAUCCCAUCACAUGAUGAUGCUUGAAGAGCUUUGGUUUUUUG", "polymerase ribozyme fitness (log ratio)": -0.886},
      {"variant": "GACCAAUCUGCCCUCAGAGCUCGAGAACAUCUUCGGAUGCAGAGGAGGCAGGCUUCGGUGGCGCGAUAGCGCCAACGUCCUCAACCUCCAAUGCAUCCCAUCACAUGAUGAUGCCUGAAGAGCCUUGAUUUUUUG", "polymerase ribozyme fitness (log ratio)": -2.16},
      {"variant": "GACCAAUCUGCCCUCAGAGCUCGAGAACAUCUUCGGAUGCAGAGGAGGCAGGCUUCGGUGGCGCGAUAGCGCCAACGUCCUCAACCUCCAAUGCAUCCCAUCACAUGAUGAUGCCUGAAGAGCCUUGGAUUUUUG", "polymerase ribozyme fitness (log ratio)": -1.62},
      {"variant": "GACCAAUCUGCCCUCAGAGCUCGAGAACAUCUUCGGAUGCAGAGGAGGCAGGCUUCGGUGGCGCGAUAGCGCCAACGUCCUCAACCUCCAAUGCAUCCCAGCACAUGAUGAUGCCUGAAGUGCCUUGGUUUUUUG", "polymerase ribozyme fitness (log ratio)": -0.28},
      {"variant": "GACCAAUCUGCCCUCAGAGCUCGAGAACAUCUUCGGAUGCAGAGGAGGCAGGCUUCGGUGGCGCGAUAGCGCCAACGUCCUCAACCUCCAAUGCAUCCCAACACAUGAUGAUGCCAGAAGAGCCUUGGUUUUUUG", "polymerase ribozyme fitness (log ratio)": -3.39},
      {"variant": "GACCAAUCUGCCCUCAGAGCUCGAGAACAUCUUCGGAUGCAGAGGAGGCAGGCUUCGGUGGCGCGAUAGCGCCAACGUCCUCAACCUCCAAUGCAUCCCAGCAUAUGAUGAUGCCUGAAGAGCCUUGGUUUUUUG", "polymerase ribozyme fitness (log ratio)": -2.98},
      {"variant": "GACCAAUCUGCCCUCAGAGCUCGAGAACAUCUUCGGAUGCAGAGGAGGCAGGCUUCGGUGGCGCGAUAGCGCCAACGUCCUCAACCUCCAAUGCAUCCCAACACAUGAUAAUGCCUGAAGAGACUUGGUUUUUUG", "polymerase ribozyme fitness (log ratio)": -3.51},
      {"variant": "GACCAAUCUGCCCUCAGAGCUCGAGAACAUCUUCGGAUGCAGAGGAGGCAGGCUUCGGUGGCGCGAUAGCGCCAACGUCCUCAACCUCCAAUGCAUCCCAACACAUGAUGAUGCCUGAACAGCCUUGGUUUUUUG", "polymerase ribozyme fitness (log ratio)": -0.0201},
      {"variant": "GACCAAUCUGCCCUCAGAGCUCGAGAACAUCUUCGGAUGCAGAGGAGGCAGGCUUCGGUGGCGCGAUAGCGCCAACGUCCUCAACCUCCAAUGCAUCCCAUCUCAUGAUGAUUCCUGAAGAGCCUUGGUUUUUUG", "polymerase ribozyme fitness (log ratio)": -7.03},
      {"variant": "GACCAAUCUGCCCUCAGAGCUCGAGAACAUCUUCGGAUGCAGAGGAGGCAGGCUUCGGUGGCGCGAUAGCGCCAACGUCCUCAACCUCCAAUGCAUCCCAACACAUGAAGGUGCCUGAAUAGCUUUGGUUUUUUG", "polymerase ribozyme fitness (log ratio)": -6.02},
      {"variant": "GACCAAUCUGCCCUCAGAGCUCGAGAACAUCUUCGGAUGCAGAGGAGGCAGGCUUCGGUGGCGCGAUAGCGCCAACGUCCUCAACCUCCAAUGCAUCCCUCCACAUGAUGAUGCCUGAAGAGCCUUGAUUUUUUG", "polymerase ribozyme fitness (log ratio)": -2.05},
      {"variant": "GACCAAUCUGCCCUCAGAGCUCGAGAACAUCUUCGGAUGCAGAGGAGGCAGGCUUCGGUGGCGCGAUAGCGCCAACGUCCUCAACCUCCAAUGCAUCCCAGCACAUGAUGAUGCCUGAAAACCCUUGGUUUUUUG", "polymerase ribozyme fitness (log ratio)": -2.36},
      {"variant": "GACCAAUCUGCCCUCAGAGCUCGAGAACAUCUUCGGAUGCAGAGGAGGCAGGCUUCGGUGGCGCGAUAGCGCCAACGUCCUCAACCUCCAAUGCAUCCCAGCACAUGAUGAUGUCUGAAGAGCCUUGGUUUUUUG", "polymerase ribozyme fitness (log ratio)": -3.32},
      {"variant": "GACCAAUCUGCCCUCAGAGCUCGAGAACAUCUUCGGAUGCAGAGGAGGCAGGCUUCGGUGGCGCGAUAGCGCCAACGUCCUCAACCUCCAAUGCAUCCCAUCACAUGAUGAUGCCUGAAGAGCCAUGGUUUUUUG", "polymerase ribozyme fitness (log ratio)": -0.975},
      {"variant": "GACCAAUCUGCCCUCAGAGCUCGAGAACAUCUUCGGAUGCAGAGGAGGCAGGCUUCGGUGGCGCGAUAGCGCCAACGUCCUCAACCUCCAAUGCAUCCCAUCACAUGAUGAUGCCUGAAGAGCCUUGGGCUUUUG", "polymerase ribozyme fitness (log ratio)": 0.135}
    ]}
  ]
}
